# According to the nanobody polyreactivity screen of Harvey et al. (2022):
# Assay: yeast display, Sf9 membrane polyspecificity reagent, FACS + sequencing; frameworks hold sequencing errors
# Summary of the method: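 Nanobodies from a synthetic yeast display library (Saccharomyces cerevisiae BJ5465), induced 36–48 hours with galactose, were stained 1 hour at 4 °C with 10% biotinylated, detergent-solubilized Sf9 membrane reagent, enriched on streptavidin microbeads, then FACS-sorted. Anti-HA (expression) and streptavidin (reagent binding) fluorescence set low and high (top ~1%) gates. Polyreactivity labels come from the gate of origin. Genes were colony-PCR amplified, MiSeq 2 × 250 sequenced and filtered by CDR length.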
row,Sequence,polyreactivity (PSR sort gate)
1,QVQLVESGGGLVQAGGSLRLSCAASGRTFCRYPMGWYRQAPGKERELVAAISSSGITYYAESVKGRFTISRDNAKNTVYLQMNSLKPEDTEVYYCAVRWGRGFWGQGTQVTVSS,high polyreactivity
2,QVQLVESGGGLVQAGGSLRLSCAASGRIFTPNAMGWYRQAPGKERELVAAITWSGDNTYADSVKGRFTISRDNAKNTVYLQMNSLKPEDTAVYYCAAAYGYGHKKYGYWGQGTQVTVSS,low polyreactivity
3,QVQLVESGGGLVQAGGSLRLSCAASGSTFEYNDMGWYRQAPGKERELVAAISSGGDTNYADSVKGRFTISRDNAKITVYLQMNSLKPEDTAVYYCAADDWAPYRWYYGYAGYYYWGQGTLVTVSS,low polyreactivity
4,QVQLVESGGGLVQAGGSLRLSCAASGSTFVTYVMGWYRQAPGKERELVADIRRSGGSTYYADSVKGRFTISRDNAKNTVYLQMNSLKPEDTAVYYCAAYQYYYVNEVRRYYYWGQGTQVTVSS,high polyreactivity
5,QVQLVESGGGLVQAGGSLRLSCAASGRSNAMGWYRQAPGKERELVAAISTNGGSTYYADSVKGRFTISRDNAKNTVYLQMNSLKPEDTAVYYCAKRLGRDYTFGYWGQGTQVTVSS,high polyreactivity
6,QVQLVESGGGLVQAGGSLRLSCAASGRIFSRYAMGWYRQAPGKERELVAAITQSGTSTYYADSVKGRFTISRDNAKNTVYLQMNSLKPEDTAVYYCNAYRQYRYDYWGQGTQVTVSS,low polyreactivity
7,LVQLVESGGGLVQAGGSLRLICAASGSIFSGYAMGWYRQAPGNERELVAAITRSGGRTYYADSVKGRFTISRDNAKNTVYLQMNSLKPEDTAGYYCATLPRYYGYWGQGTQVTVSS,high polyreactivity
8,QVQLVESGGGLVQAGGSLRLSCAASGSIFYYNALGWYRHAPGKERELVASISNGGSTDYADSVKGRFTISRDNAKNTVYLQMNSVKPEDTAVYYCNAKQSYRSDYDYWGQGTQVTVSS,low polyreactivity
9,QVQLVESGGGLVQAGGSLRLSCAASGSTFAYYAMGWYRQAPGKERELVAVISVRGGSTYYADSVKGRFTISRDYAKNTVYLQMNSLKPEDTAVYYCAADTFAGYYYWGQGTQVTVSS,high polyreactivity
10,QVQLVESGGGLVQAGGSLRLSCAASGRTFLGYTMGWYRQAPGKEREFVAAITFSGDSTYYADSVKGRFTISRDNAKNTVYLQMNSLKPEDTAVYYCAARKKYYTYLFYYWGQGTQVTVSS,high polyreactivity
11,QVQLVESGGGLDQAGGSLRLSCAASGRTFGYYARGWYRQAPGKERELVAAISYSGGTTYYADSVKGRYTISRDNAKNTVYLQMNSLKPEDTAVYYCATGGYSTRQSTFDYWGQGTQVTVSS,low polyreactivity
12,QVQLVESGGGLVQAGGSLRLSCAASGLTFYLYAMGWYRQAPGKERELVAAITTSGGSTYYADSVKGRFTISRDNAKNTVYLQMNSLKPEDTAVYDCATQGAIRGYGYWGQGTQVTVSS,high polyreactivity
13,QVQLVESGGGLVQAGGSLRLSCAASGSIRYYAMGWYRQAPGKERELVAAISSRGTNTYYADSVKGRFTISRDNAKNTVYLQMNSLKPEDTAVYYCIAVVGLGYNYWGQGTQVTVSS,high polyreactivity
14,QVQLVESGGGLVQAGGSLRLSCAASGFIFRKYAMGWYRQAPGKERELVAAITSSGGSTYYAGSVKGRFTISRDNAKNTVYLQMNSLKPEDTAVYYCAARLKQSGHDYWGQGTQVTVSS,high polyreactivity
15,QVQLVESGGGLVQAGGSLRLSCAASGSTFFLYAMGWYRQAPGKERELVASITDGGSTNYADSVKGRFTISRDNAKNTVYLQMNSLKPEDTAVYYCAKDYIHFSHKYDYWGQGTQVTVSS,low polyreactivity
16,QVQLVESGGGLVQAGGSLRLSCAASGLTFDYYAMGWSRQAPGKERELVAAITSSGGRTYYADSVKGRFTISRDNAKNTVYLQMNSLKPEDTAVYYCAKRDSYYNGVGYWGQGTQVTVSS,low polyreactivity
17,QVQLVESGGGLFQAGGSLRLSCAASGINFYKYSMGWYRQAHRKERELVAAITSGGGRTYYADSVKGRFTISRDNAKNTVYLQMNSLKPEDTAVYYCAATRPASYAAYDYWGQGTQVTVSS,high polyreactivity
18,QVQLVESGGGLVQAGGSLRLSCAASGIIYTTNAMGWYRQAPGKERELVAAIRRSGSTYYADSVKGRFTISRDNAKNNVYLQMNSLKPEDTAVYYCNAKVHYGSRGDYWGQGTQLTVSS,low polyreactivity
19,QDQLVESGGGLVQAGGSLRLSCAASGRTFRWNAMGWYRQAPGKERELVAAITKSGGSTYYADSVKGRFTISRDNAKNTVYLQMNSLKPEDTAVYYCAAPRYSTFTYDYWGQGTQVTVSS,low polyreactivity
20,QVQLEESGGGLVQAGGSLRLSCAASGRTFSGYAMGSYRQAPGKDRELVAAITRRGGTTYYADSVKGRFTISRDNAKNTVYLQMNSLKPEDTAVYYCAAAKPRVISQKIIYYYWGQGTQVTVSS,high polyreactivity
21,QVQLVESGGGLVQAGGSLRLSCAASGVIFGRYAMGWYREAPGKERELVAAISWGGGSTRYADSVKGRFTISRDNAKNTVYLQMNSLKPEDTAVYYCAAYRYWGRTSYSYDYWGQGTQVTVSS,high polyreactivity
22,QVQLVESGGGLVQAGGSLRLSCAASGITFVQYAMGWYRQAPGKERELVAAITSDGRTYYADSVKGRFTISRDNAKNTVYLQMNSLKPEDTAVYYCAADVWRYTAYGGAYRRDYWGQGTQVTVSS,low polyreactivity

row,Sequence,polyreactivity (PSR sort gate)
1,QDQLVESGGGLVQAGGSLRLSCAASGSTFTSNAMGWYRQAPGKERELVAAISFSDASTYYADSVKGRFTISRDNAKKTVYLQMNSLKPEDTAVYYCNADYPTTAYDYCGQGTQVTVSS,low polyreactivity
2,QVQPQESGVGLVQAGGSLRLSCAASGTIFAFQTMGWYRQAPGKERELVASITYGSSTNYADSVKGRFTISRDNAKNTVYLLMNRLKPEDTAVYYCAVPQAQYYYDYWGQGTQVTVSS,high polyreactivity
3,QVQLVESGGGLVQAGGSLPLSCAASGITFHRYAMGWDRQAPGKERELVAAMSRGASTNYADSVKGRFTISRDNAKNTVYLQMNSLKPEDTAVYYCAARTIGWYSGSRFDYWGQCTQVTVSS,high polyreactivity
4,QVQLVESGGGLVQAGGSLRLSCAASGFTFRPYAMGWYRQAPGKERELVAAISTSGATTYYADSVKGRFTISRDNAKITVYLQMNSLKPEDTAVYYCNKVYWHHPWEYGYWGQGTQVTVSS,high polyreactivity
5,QVQLVESGGGLVQAGGSLRLSCAASGRIFTVYAMGWYRQAPGKERELVAAISRGGSTYADSVKGRFTISRDNAKNTVYLQMNSLKPEDTAVYYCAAVNFRKGEDYWGQGTQVTVSS,high polyreactivity
6,QVQLVESGGGLVQAGGSLRLSCAASGFTFRVYAMGWYRQAPGKERDLVAPISLRGDRTYYADSVKGRFTISRDYAKNTEYLQMNRLKPEDTAVYYCHAYASYQISQDDYDYWGQGTQVTVSS,high polyreactivity
7,QVQLVESGGGLVQAGGSLRLSCAASGSIFAPNAMGWYRQAPRKEREFVAGITQSGTSTYADSVKGRFTISRDNAKNTVYLQMNSLKPEDTAVYYCAAEYYYGYWYGYIISYDYWGQGTQVTVSS,high polyreactivity
8,QVQLVESGGGLVQAGGSLRLSCAASGYTFSSYTMGWYRQAPRKERELVAAITYSGGSTYYADSVKGRFTISRDNAKNTVYLQMNSLKPEDTAVYYCNARGRYAYAYWGQGTQVTVSS,low polyreactivity
9,QVQLVESGGGLVQAGGSLRLSCAASGLIFRYYAMGVYRQAPGHERELVAALTSTGRTYYADSVKGRFTISRDNAKNTVYVQMNSLKPEDTAVYYCNTDQFADYHTDFWSDYEYWGQGTQVTVSS,low polyreactivity
10,QVQLLESGGGLVQAGGTLRLSCAASGSIFFRNAMGWYRQAPGKERELVAAITWNGGSTYYADSVKGRFTISRDNAKNTVYLQMNSLKPDDTAVYYCNKYYYYRDSGYWGQGTQVTVSS,high polyreactivity
11,QVQLVESGGGLVQAGGSLRLSCAASGSIFSSYAMGWYRQAPGKERELVAAISQSGGDTYYADSVKGRFTISRDNAKYTVYLQMNSLKPDDTAVYYCAASVWYFPMDYWGQGTQLTVSS,low polyreactivity
12,QVQLVESGGGLVQAGGSLRLSCAASGFISVRNAMGWYRQAPGKERELVAAISSGDTTDYADSVKGRFTISRDNAKNTVYLQMISLKPEDTAVYYCAAVYYGRYYYWGQGTQVTVSS,low polyreactivity
13,QVQLLESGGGLVQAGGSLRLICSASGRTFSGYALGWYRHSPGRERELVAAITSSGSSKYYADSVKGRFTISRDKAKYTVYLQMKSLKPEDTAVYYCAATPQAHSEPYFYQRKYDFWGEGTQVTVSS,low polyreactivity
14,QVQLVESGGGLVQAGGSLRLSCAASGRTFYVYAMGWYRQAPGKERELVAAITSGGRTYYADSVKGRFTISRDNAKNTVYLQMNSLKPEDTAVYYCAVGNGLSRYVYGDYDYWGQGTQVTVSS,high polyreactivity
15,QVQLVESGGVLVQAGGSLRLTCAASGFTFSRNTMGWYRQAPGKERELVAAIDSTGGSTYYADSVKGRFTISRDNAKNTVYLQMNSLKPEDTAVYYCATVLPDGRVWYEGYYWGQGTQVTVSS,low polyreactivity
16,QVQLVESGGGLVQEGGSLRLSCAASGIIFLDNAMGWYRQAPGKERELVAAITTGGITYYADSVKGRFTISRDNAKNTVYLQMNSLKPEDTAVYYCATDPVNSGYQRYYYWGQGTQVTVSS,low polyreactivity
17,QVQLVESGGGLVQAGGSLRLSCAASGSIFGYYAMGWYRQAPGKERELVAAITWSGDSTYYADSVKGRFTISRDNAKNTVYLQMNSLKPEDTAVYYCAARQFVHTRYFSFGYWGQGTQVTVSS,low polyreactivity
18,QLQLVESGGGLVQAGGSLRISCAASGSTFGRNAMGWYRQAPGKERELVAVISKSGGSTYYADSVKGRFTISRDNAKNTVYLQMNSLKPEDTAVYYCAARYYSYWREYQHFDYWGQGTQVTVSS,high polyreactivity
19,QVQLVESGGGLVQAGGSLRLSCAAYGSTFASYSMGWYRQAPGKERELVADISKSGTRTYYADSVKGRFTISRDNAKNTVYLQMNSLKPEDTAVYYCATGQYLRTSRFYYWGHGTQVTVSS,high polyreactivity
20,QVQLVESGGGLVQAGGSLRLSCAASGRTFGGYAMGWYRQAPGKERELVASITRSGGGTYYADSVKGRFTISRDNAKNTVYLQMNSLKPEDTAVYYCAVYFANPYSVYGLGVYSTLNYWGQGTQVTVSS,low polyreactivity
21,QVQLVESGGGLVQAGGSLRLSCAASGIIFARNTMGWYRQAPGKERELVAAISTRGTTSYYADSVKGRFTISRDNAKYTVYLQMNSLKPEDTAVYYCAAVRVHTDRYNYWGQGTQVTVSS,high polyreactivity
